Experimental data reported in the RNAGym collection of RNA variant scans (doi:10.1021/acssynbio.7b00057).

B1: Pistol ribozyme (parent)
chain: GGGUCGUUGUUCCAUAAUCGCGUGGAUAUGGCACGCAAGUUUCUACCGGGCACCGUAAAUGUCCGACUGGAGCCGUUCGGGCGGCUAUAAACAGACCUCAGGCCCGAAGCGUGGCGGCACCUGCCGCCGGUGGUAAAAAAGAUCGGAAGAGCACACGUCU

Variants of: B1
Assay: aptazyme ON/OFF ratio, guanine; higher = stronger switching; co-transcriptional cleavage with and without guanine

Variant | aptazyme ON/OFF ratio
GGGUCGACCUAGAAUAAUCGCGUGGAUAUGGCACGCAAGUUUCUACCGGGCACCGUAAAUGUCCGACUGGAGCCGUUCGGGCGGCUAUAAACAGACCUCAGGCCCGAAGCGUGGCGGCACCUGCCGCCGGUGGUAAAAAAGAUCGGAAGAGCACACGUCU | 1.09
GGGUCGACCUAGGAUAAUCGCGUGGAUAUGGCACGCAAGUUUCUACCGGGCACCGUAAAUGUCCGACUGGAGCCGUUCGGGCGGCUAUAAACAGACCUCAGGCCCGAAGCGUGGCGGCACCUGCCGCCGGUGGUAAAAAAGAUCGGAAGAGCACACGUCU | 1.16
GGGUCGACCUAGUAUAAUCGCGUGGAUAUGGCACGCAAGUUUCUACCGGGCACCGUAAAUGUCCGACUGGAGCCGUUCGGGCGGCUAUAAACAGACCUCAGGCCCGAAGCGUGGCGGCACCUGCCGCCGGUGGUAAAAAAGAUCGGAAGAGCACACGUCU | 1.13
GGGUCGACCUAGCAUAAUCGCGUGGAUAUGGCACGCAAGUUUCUACCGGGCACCGUAAAUGUCCGACUGGAGCCGUUCGGGCGGCUAUAAACAGACCUCAGGCCCGAAGCGUGGCGGCACCUGCCGCCGGUGGUAAAAAAGAUCGGAAGAGCACACGUCU | 1.09
GGGUCGACCUAACAUAAUCGCGUGGAUAUGGCACGCAAGUUUCUACCGGGCACCGUAAAUGUCCGACUGGAGCCGUUCGGGCGGCUAUAAACAGACCUCAGGCCCGAAGCGUGGCGGCACCUGCCGCCGGUGGUAAAAAAGAUCGGAAGAGCACACGUCU | 1.08
GGGUCGACCUAUCAUAAUCGCGUGGAUAUGGCACGCAAGUUUCUACCGGGCACCGUAAAUGUCCGACUGGAGCCGUUCGGGCGGCUAUAAACAGACCUCAGGCCCGAAGCGUGGCGGCACCUGCCGCCGGUGGUAAAAAAGAUCGGAAGAGCACACGUCU | 1.05
GGGUCGACCGGGGAUAAUCGCGUGGAUAUGGCACGCAAGUUUCUACCGGGCACCGUAAAUGUCCGACUGGAGCCGUUCGGGCGGCUAUAAACAGACCUCAGGCCCGAAGCGUGGCGGCACCUGCCGCCGGUGGUAAAAAAGAUCGGAAGAGCACACGUCU | 1.13
GGGUCGACCGGGUAUAAUCGCGUGGAUAUGGCACGCAAGUUUCUACCGGGCACCGUAAAUGUCCGACUGGAGCCGUUCGGGCGGCUAUAAACAGACCUCAGGCCCGAAGCGUGGCGGCACCUGCCGCCGGUGGUAAAAAAGAUCGGAAGAGCACACGUCU | 1.05
GGGUCGACCGGGAAUAAUCGCGUGGAUAUGGCACGCAAGUUUCUACCGGGCACCGUAAAUGUCCGACUGGAGCCGUUCGGGCGGCUAUAAACAGACCUCAGGCCCGAAGCGUGGCGGCACCUGCCGCCGGUGGUAAAAAAGAUCGGAAGAGCACACGUCU | 1.08
GGGUCGACCGGUGAUAAUCGCGUGGAUAUGGCACGCAAGUUUCUACCGGGCACCGUAAAUGUCCGACUGGAGCCGUUCGGGCGGCUAUAAACAGACCUCAGGCCCGAAGCGUGGCGGCACCUGCCGCCGGUGGUAAAAAAGAUCGGAAGAGCACACGUCU | 1.1
GGGUCGACCGGUAAUAAUCGCGUGGAUAUGGCACGCAAGUUUCUACCGGGCACCGUAAAUGUCCGACUGGAGCCGUUCGGGCGGCUAUAAACAGACCUCAGGCCCGAAGCGUGGCGGCACCUGCCGCCGGUGGUAAAAAAGAUCGGAAGAGCACACGUCU | 1.07
GGGUCGACCGGUUAUAAUCGCGUGGAUAUGGCACGCAAGUUUCUACCGGGCACCGUAAAUGUCCGACUGGAGCCGUUCGGGCGGCUAUAAACAGACCUCAGGCCCGAAGCGUGGCGGCACCUGCCGCCGGUGGUAAAAAAGAUCGGAAGAGCACACGUCU | 1.1
GGGUCGACCGGCAAUAAUCGCGUGGAUAUGGCACGCAAGUUUCUACCGGGCACCGUAAAUGUCCGACUGGAGCCGUUCGGGCGGCUAUAAACAGACCUCAGGCCCGAAGCGUGGCGGCACCUGCCGCCGGUGGUAAAAAAGAUCGGAAGAGCACACGUCU | 1.12
GGGUCGACCGGCGAUAAUCGCGUGGAUAUGGCACGCAAGUUUCUACCGGGCACCGUAAAUGUCCGACUGGAGCCGUUCGGGCGGCUAUAAACAGACCUCAGGCCCGAAGCGUGGCGGCACCUGCCGCCGGUGGUAAAAAAGAUCGGAAGAGCACACGUCU | 1.08
GGGUCGACCGGCUAUAAUCGCGUGGAUAUGGCACGCAAGUUUCUACCGGGCACCGUAAAUGUCCGACUGGAGCCGUUCGGGCGGCUAUAAACAGACCUCAGGCCCGAAGCGUGGCGGCACCUGCCGCCGGUGGUAAAAAAGAUCGGAAGAGCACACGUCU | 1.09
GGGUCGACCGGAGAUAAUCGCGUGGAUAUGGCACGCAAGUUUCUACCGGGCACCGUAAAUGUCCGACUGGAGCCGUUCGGGCGGCUAUAAACAGACCUCAGGCCCGAAGCGUGGCGGCACCUGCCGCCGGUGGUAAAAAAGAUCGGAAGAGCACACGUCU | 1.07
GGGUCGACCGGAAAUAAUCGCGUGGAUAUGGCACGCAAGUUUCUACCGGGCACCGUAAAUGUCCGACUGGAGCCGUUCGGGCGGCUAUAAACAGACCUCAGGCCCGAAGCGUGGCGGCACCUGCCGCCGGUGGUAAAAAAGAUCGGAAGAGCACACGUCU | 1.15
GGGUCGACCGGAUAUAAUCGCGUGGAUAUGGCACGCAAGUUUCUACCGGGCACCGUAAAUGUCCGACUGGAGCCGUUCGGGCGGCUAUAAACAGACCUCAGGCCCGAAGCGUGGCGGCACCUGCCGCCGGUGGUAAAAAAGAUCGGAAGAGCACACGUCU | 1.08

Variant | aptazyme ON/OFF ratio
GGGUCGACCUAUAAUAAUCGCGUGGAUAUGGCACGCAAGUUUCUACCGGGCACCGUAAAUGUCCGACUGGAGCCGUUCGGGCGGCUAUAAACAGACCUCAGGCCCGAAGCGUGGCGGCACCUGCCGCCGGUGGUAAAAAAGAUCGGAAGAGCACACGUCU | 1.09
GGGUCGACCUAUGAUAAUCGCGUGGAUAUGGCACGCAAGUUUCUACCGGGCACCGUAAAUGUCCGACUGGAGCCGUUCGGGCGGCUAUAAACAGACCUCAGGCCCGAAGCGUGGCGGCACCUGCCGCCGGUGGUAAAAAAGAUCGGAAGAGCACACGUCU | 1.04
GGGUCGACCUAUUAUAAUCGCGUGGAUAUGGCACGCAAGUUUCUACCGGGCACCGUAAAUGUCCGACUGGAGCCGUUCGGGCGGCUAUAAACAGACCUCAGGCCCGAAGCGUGGCGGCACCUGCCGCCGGUGGUAAAAAAGAUCGGAAGAGCACACGUCU | 1.07
GGGUCGACCUCGCAUAAUCGCGUGGAUAUGGCACGCAAGUUUCUACCGGGCACCGUAAAUGUCCGACUGGAGCCGUUCGGGCGGCUAUAAACAGACCUCAGGCCCGAAGCGUGGCGGCACCUGCCGCCGGUGGUAAAAAAGAUCGGAAGAGCACACGUCU | 1.18
GGGUCGACCUCACAUAAUCGCGUGGAUAUGGCACGCAAGUUUCUACCGGGCACCGUAAAUGUCCGACUGGAGCCGUUCGGGCGGCUAUAAACAGACCUCAGGCCCGAAGCGUGGCGGCACCUGCCGCCGGUGGUAAAAAAGAUCGGAAGAGCACACGUCU | 1.04
GGGUCGACCUCCCAUAAUCGCGUGGAUAUGGCACGCAAGUUUCUACCGGGCACCGUAAAUGUCCGACUGGAGCCGUUCGGGCGGCUAUAAACAGACCUCAGGCCCGAAGCGUGGCGGCACCUGCCGCCGGUGGUAAAAAAGAUCGGAAGAGCACACGUCU | 1
GGGUCGACCUACCAUAAUCGCGUGGAUAUGGCACGCAAGUUUCUACCGGGCACCGUAAAUGUCCGACUGGAGCCGUUCGGGCGGCUAUAAACAGACCUCAGGCCCGAAGCGUGGCGGCACCUGCCGCCGGUGGUAAAAAAGAUCGGAAGAGCACACGUCU | 1.11
GGGUCGACCUACGAUAAUCGCGUGGAUAUGGCACGCAAGUUUCUACCGGGCACCGUAAAUGUCCGACUGGAGCCGUUCGGGCGGCUAUAAACAGACCUCAGGCCCGAAGCGUGGCGGCACCUGCCGCCGGUGGUAAAAAAGAUCGGAAGAGCACACGUCU | 1.07
GGGUCGACCUACUAUAAUCGCGUGGAUAUGGCACGCAAGUUUCUACCGGGCACCGUAAAUGUCCGACUGGAGCCGUUCGGGCGGCUAUAAACAGACCUCAGGCCCGAAGCGUGGCGGCACCUGCCGCCGGUGGUAAAAAAGAUCGGAAGAGCACACGUCU | 1.05
GGGUCGACCUACAAUAAUCGCGUGGAUAUGGCACGCAAGUUUCUACCGGGCACCGUAAAUGUCCGACUGGAGCCGUUCGGGCGGCUAUAAACAGACCUCAGGCCCGAAGCGUGGCGGCACCUGCCGCCGGUGGUAAAAAAGAUCGGAAGAGCACACGUCU | 1.05
GGGUCGACCUAAUAUAAUCGCGUGGAUAUGGCACGCAAGUUUCUACCGGGCACCGUAAAUGUCCGACUGGAGCCGUUCGGGCGGCUAUAAACAGACCUCAGGCCCGAAGCGUGGCGGCACCUGCCGCCGGUGGUAAAAAAGAUCGGAAGAGCACACGUCU | 1.05
GGGUCGACCUAAAAUAAUCGCGUGGAUAUGGCACGCAAGUUUCUACCGGGCACCGUAAAUGUCCGACUGGAGCCGUUCGGGCGGCUAUAAACAGACCUCAGGCCCGAAGCGUGGCGGCACCUGCCGCCGGUGGUAAAAAAGAUCGGAAGAGCACACGUCU | 1.07
GGGUCGACCUAAGAUAAUCGCGUGGAUAUGGCACGCAAGUUUCUACCGGGCACCGUAAAUGUCCGACUGGAGCCGUUCGGGCGGCUAUAAACAGACCUCAGGCCCGAAGCGUGGCGGCACCUGCCGCCGGUGGUAAAAAAGAUCGGAAGAGCACACGUCU | 1.08
GGGUCGACCGGUCAUAAUCGCGUGGAUAUGGCACGCAAGUUUCUACCGGGCACCGUAAAUGUCCGACUGGAGCCGUUCGGGCGGCUAUAAACAGACCUCAGGCCCGAAGCGUGGCGGCACCUGCCGCCGGUGGUAAAAAAGAUCGGAAGAGCACACGUCU | 1.05
GGGUCGACCGGGCAUAAUCGCGUGGAUAUGGCACGCAAGUUUCUACCGGGCACCGUAAAUGUCCGACUGGAGCCGUUCGGGCGGCUAUAAACAGACCUCAGGCCCGAAGCGUGGCGGCACCUGCCGCCGGUGGUAAAAAAGAUCGGAAGAGCACACGUCU | 1.13
GGGUCGACCUCAGAUAAUCGCGUGGAUAUGGCACGCAAGUUUCUACCGGGCACCGUAAAUGUCCGACUGGAGCCGUUCGGGCGGCUAUAAACAGACCUCAGGCCCGAAGCGUGGCGGCACCUGCCGCCGGUGGUAAAAAAGAUCGGAAGAGCACACGUCU | 1.04
GGGUCGACCUCAAAUAAUCGCGUGGAUAUGGCACGCAAGUUUCUACCGGGCACCGUAAAUGUCCGACUGGAGCCGUUCGGGCGGCUAUAAACAGACCUCAGGCCCGAAGCGUGGCGGCACCUGCCGCCGGUGGUAAAAAAGAUCGGAAGAGCACACGUCU | 1.06
GGGUCGACCUCAUAUAAUCGCGUGGAUAUGGCACGCAAGUUUCUACCGGGCACCGUAAAUGUCCGACUGGAGCCGUUCGGGCGGCUAUAAACAGACCUCAGGCCCGAAGCGUGGCGGCACCUGCCGCCGGUGGUAAAAAAGAUCGGAAGAGCACACGUCU | 1.04
